Experimental data taken from patent US20250295801A1, “CD25 ANTIBODIES, ANTIBODY DRUG CONJUGATES, AND USES THEREOF” (Seagen Inc., priority 2024, published 2025).
Like-named read-outs stand apart in the source and are kept apart here.

Assays:
[1] = target: T1, recombinant cynomolgus CD25 (cynomolgus, UniProt H6WS54 22-213); assay: ELISA on plate-coated cynomolgus CD25
T1 construct: also called cyno CD25; cynomolgus CD25/IL2RA
T1 sequence: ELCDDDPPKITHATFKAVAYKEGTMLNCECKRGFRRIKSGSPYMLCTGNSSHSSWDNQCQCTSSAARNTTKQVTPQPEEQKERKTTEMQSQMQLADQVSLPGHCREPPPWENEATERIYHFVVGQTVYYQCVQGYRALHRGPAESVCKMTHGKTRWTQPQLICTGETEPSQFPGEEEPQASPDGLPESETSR
Protocol: (§1) Saturation binding ELISA experiments were performed using soluble recombinant antigens, which were diluted to an appropriate concentration in 50 mM carbonate buffer, pH 9.6. To each well of a 96- or 384-well Maxisorb ELISA plate was added 100 μL of soluble antigen. The plate was sealed and stored at 4° C. overnight. The plate was then washed 3-5 times with PBS-T was buffer (PBS, pH 7.4+0.05% Tween-20). The wells were blocked using 300 μL/well of PBS-T buffer containing BSA for 1 hour at room temperature, then washed 3-5 times with PBS-T. Dilutions of antibodies were prepared in blocking buffer and added to each well in a volume of 100 μL. The antibodies were incubated for 1 hour at room temperature, and then washed 3-5 times with PBS-T. HRP-conjugated secondary antibodies (anti-human Fc) were then added and incubated for 1 hour at room temperature. The plate was washed 3-5 times with PBS-T. The ELISA was developed by adding 100 μL of TMB solution and incubating for 3-15 min at room temperature. To stop the reaction, 100 μL of 1 N sulfuric acid was added to each well. The absorbance at 450 nm was determined using a Spectramax 190 plate reader (Molecular Biosciences) and the data plotted using GraphPad Prism 6.

recombinant human CD25 [2] = target: T2, recombinant human CD25 (human, UniProt P01589 22-213, limits assumed, biotinylated in the Octet kinetic assay (site not stated)); assay: saturation binding ELISA on recombinant human CD25
T2 construct: Soluble recombinant antigen; It was coated on plates for ELISA and used as bought biotinylated protein for BLI; The ELISA and BLI reagents may be different constructs; also called hCD25; CD25/IL2RA
T2 sequence: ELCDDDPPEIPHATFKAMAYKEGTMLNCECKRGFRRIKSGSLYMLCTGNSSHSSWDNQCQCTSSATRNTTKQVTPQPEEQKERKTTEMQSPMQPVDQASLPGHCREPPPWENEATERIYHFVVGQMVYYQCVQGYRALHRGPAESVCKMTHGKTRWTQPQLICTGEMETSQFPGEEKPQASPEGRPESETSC

recombinant human CD25 [3] = target: T2, recombinant human CD25; assay: saturation binding ELISA on recombinant human CD25; remark: listed apart in the source
Protocol: as §1

recombinant human CD25 [4] = target: T2, recombinant human CD25; assay: saturation binding ELISA on recombinant human CD25; remark: listed apart in the source
Protocol: as §1

[5] = target: T1, recombinant cynomolgus CD25; assay: saturation binding ELISA on recombinant cynomolgus CD25
Protocol: as §1

recombinant human CD25 [6] = target: T2, recombinant human CD25; assay: saturation binding ELISA on plate-coated recombinant human CD25
Protocol: as §1

recombinant human CD25 [7] = target: T2, recombinant human CD25; assay: BLI kinetics (Octet RED384), biotinylated hCD25 on SAX tips, 1:1 global fit
Protocol: Biotinylated recombinant human CD25 was obtained from Acro Biosystems. Biotinylated hCD25 protein was loaded on SAX (High sensitivity streptavidin) tips at 0.8 nM loading density. Affinity measurements were run using a ForteBio Octet RED384 instrument in the kinetic buffer comprising 1×PBS, 0.1% BSA, 0.02% Tween20, pH 7.4. Association measurements were performed for 300 seconds and disassociation measurements were performed for 900 seconds. Each curve was reference subtracted and modeled using a 1:1 global fit. KD results are reported as kₐ divided by kd.

[8] = target: T1, recombinant cynomolgus CD25; assay: saturation binding ELISA on plate-coated recombinant cynomolgus CD25
Protocol: as §1

[9] = target: T3, human CD25 on CD25 expressing cells (human, UniProt P01589 22-272); assay: saturation binding by flow cytometry on L540cy cells (CD25: 55,000 per cell), MFI (Gmean)
T3 construct: Endogenous CD25 on human lymphoma lines (L540cy, Karpas-299) and on human Treg cells; also called CD25 on L540cy cells; CD25 on Karpas-299 cells
T3 sequence: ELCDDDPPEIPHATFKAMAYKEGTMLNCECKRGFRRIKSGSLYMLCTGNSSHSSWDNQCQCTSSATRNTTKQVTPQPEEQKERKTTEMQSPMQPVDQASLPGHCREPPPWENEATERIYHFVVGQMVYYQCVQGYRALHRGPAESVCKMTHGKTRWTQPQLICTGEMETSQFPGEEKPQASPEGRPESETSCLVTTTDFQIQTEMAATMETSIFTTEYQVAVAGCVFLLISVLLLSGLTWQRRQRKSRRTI
Protocol: (§2) For cellular binding analysis by FACS, cells expressing the target protein of interest (2×10⁵) were treated with a serial dilution of indicated antibody in staining buffer (PBS, 5% FBS, 0.2% NaN₃). Samples were incubated for 1 hour on ice and washed twice with ice-cold staining buffer. Cells were resuspended with anti-human IgG-AF488 or IgG-AF647 (JacksonImmunoResearch), 1:200 dilution in staining buffer) for 1 hour on ice. Cells were washed twice with ice cold staining buffer and resuspended in staining buffer. Labeled cells were examined by flow cytometry on an Invitrogen Attune NxT flow cytometer gated to exclude nonviable cells, and the data analyzed using FlowJo10 software. When determined, the KD was calculated using GraphPad Prism 6 using non-linear regression.
(§3) Saturation binding analysis was also performed using high CD25 expressing L540cy cells.

[10] = target: T3, human CD25 on CD25 expressing cells; assay: as above; remark: listed apart in the source
Protocol: as §2, §3

recombinant human CD25 [11] = target: T2, recombinant human CD25; assay: saturation binding ELISA on recombinant human CD25; EC50 relative to SG25Ab-9
Protocol: as §1

[12] = target: T1, recombinant cynomolgus CD25; assay: saturation binding ELISA on recombinant cynomolgus CD25; EC50 relative to SG25Ab-9
Protocol: as §1

recombinant cyno CD25 = assay: Saturation binding analysis by ELISA; design: species or system cynomolgus; details: compared with human CD25, FIG. 1A, 1B, 7
Protocol: Saturation binding ELISA experiments were performed using soluble recombinant antigens, which were diluted to an appropriate concentration in 50 mM carbonate buffer, pH 9.6. To each well of a 96- or 384-well Maxisorb ELISA plate was added 100 μL of soluble antigen. The plate was sealed and stored at 4° C. overnight. The plate was then washed 3-5 times with PBS-T was buffer (PBS, pH 7.4+0.05% Tween-20). The wells were blocked using 300 μL/well of PBS-T buffer containing BSA for 1 hour at room temperature, then washed 3-5 times with PBS-T. Dilutions of antibodies were prepared in blocking buffer and added to each well in a volume of 100 μL. The antibodies were incubated for 1 hour at room temperature, and then washed 3-5 times with PBS-T. HRP-conjugated secondary antibodies (anti-human Fc) were then added and incubated for 1 hour at room temperature. The plate was washed 3-5 times with PBS-T. The ELISA was developed by adding 100 μL of TMB solution and incubating for 3-15 min at room temperature. To stop the reaction, 100 μL of 1 N sulfuric acid was added to each well. The absorbance at 450 nm was determined using a Spectramax 190 plate reader ([…]) and the data plotted using GraphPad Prism 6.
Saturation binding analysis of CD25 antibody SG25Ab-9 and detuned CD25 antibody SG25Ab-9 YH98A on recombinant human and cyno CD25 was assessed by ELISA.

CD25 expressing cells = assay: Internalization into CD25 expressing cells; type: cell-based, human; details: FIG. 1E

Molecule | EC50 (read off the curve) [1] [nM] | EC50 (recombinant human CD25 [2]) [nM] | EC50 (read off the curve) (recombinant human CD25 [3]) [nM] | EC50 (read off the curve) (recombinant human CD25 [4]) [nM] | EC50 [5] [nM] | EC50 (read off the curve) (recombinant human CD25 [6]) [nM] | Kd (recombinant human CD25 [7]) [nM] | koff (recombinant human CD25 [7]) [s⁻¹] | kon (recombinant human CD25 [7]) [M⁻¹ s⁻¹] | EC50 (read off the curve) [8] [nM] | EC50 (read off the curve) [9] [nM] | EC50 (read off the curve) [10] [nM] | Fold Change (recombinant human CD25 [11]) | Fold Change [12] | binding to recombinant cynomolgus CD25 (recombinant cyno CD25) | internalization into CD25 expressing cells (CD25 expressing cells)
CD25 antibody SG25Ab-9 (antibody, human IgG1, lambda, V domains shown, Fully human antibody from a phage scFv library, expressed as IgG1 with a lambda light chain; HC and LC are the entries without signal peptide; also called SG25Ab-9 IgG1; SGAb25-9) VH: QVQLVQSGAEVKKPGESLKISCKGSGYSSTSYWIGWVRQMPGKGLEWMGIIYPGDSDTRYSPSFQGQVTISADKSISTAYLQWSSLKASDTAMYYCARLGSYYAFDIWGRGTMVTVSS VL: QSALTQPASVSASPGQSITISCTGTSSDVGAYIYVSWYQQLSGKPPKLILYDVSKRPSGISDRFSGSKSGNTASLTISGLQADDEADYYCSSYTRSSTWVFGGGTQLTVLG | 0.1 to 0.2 | 0.1 | 0.1 to 0.2 | 0.1 to 0.2 | 0.25 | 0.1 to 0.2 | 0.1 | 2.7e-05 | 210000 | 0.1 to 0.2 | ~0.8 | ~1 | – | – | – | –
detuned CD25 antibody SG25Ab-9 YH98A (antibody, human IgG1, lambda, V domains shown, IgG1; Tyr to Ala in CDR-H3 (YH98A); also called SGAb25-9 YH98A) VH: QVQLVQSGAEVKKPGESLKISCKGSGYSSTSYWIGWVRQMPGKGLEWMGIIYPGDSDTRYSPSFQGQVTISADKSISTAYLQWSSLKASDTAMYYCARLGSAYAFDIWGRGTMVTVSS VL: QSALTQPASVSASPGQSITISCTGTSSDVGAYIYVSWYQQLSGKPPKLILYDVSKRPSGISDRFSGSKSGNTASLTISGLQADDEADYYCSSYTRSSTWVFGGGTQLTVLG | – | ~116 | – | – | ~238 | – | 14 | 0.0043 | 310000 | – | – | – | ~1160 | ~950 | – | –
SG25Ab-4: human anti-CD25 IgG1 antibody; VH SEQ ID NO: 31, VL SEQ ID NO: 32 (antibody, V domains shown) VH: EVQLVQSGAEVKKPGESLKISCKGPEYSFNRYWIAWVRQRPGKGLEWMGIIYPGDSDARYSPTFEGHVTLSADMSLTTAYLQWSSLRASDTAMYYCARLGSYYAFDIWGKGTMVTVSS VL: QSALTQPASVSGSPGQSITIFCTGTSSDVGGYNYVSWYQQHPGKAPKLMIYDVSKRPSGVSNRFSGSKSGNTASLTISGLQAEDEADYYCSSYTSSSTWVFGGGTQLTVL | – | – | – | – | – | – | – | – | – | – | – | – | – | – | efficiently bound cynomolgus CD25 | efficiently internalized into CD25 expressing cells
